Results reported in patent publication US20110008345A1 (GlaxoSmithKline, published 2011).
Values belong to the binder of their own block, whether it stands above or below them.

Tests used:
[1] = target: recombinant E. coli-expressed human IL-18 (human, UniProt Q14116 37-193); assay: SPR
[2] = target: T1, recombinant E. coli-expressed human IL-13 (human, UniProt P35225 35-146); assay: ELISA
T1 construct: made and purified at GSK; also called Interleukin-13; rhIL-13

[3] = target: T2, recombinant E. coli-expressed human IL-4 (human, UniProt P05112 25-153); assay: ELISA
T2 construct: made and purified at GSK; also called Interleukin-4; rhIL-4
T2 sequence: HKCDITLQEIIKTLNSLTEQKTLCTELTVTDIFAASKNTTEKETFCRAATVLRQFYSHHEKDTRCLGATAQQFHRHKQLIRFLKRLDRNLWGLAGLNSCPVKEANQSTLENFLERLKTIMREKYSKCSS

[4] = target: T1, recombinant E. coli-expressed human …; assay: SPR
[5] = target: T2, recombinant E. coli-expressed human IL-4; assay: SPR
[6] = target: T2, recombinant E. coli-expressed human IL-4; assay: SPR, positive dissociation
[7] = target: T1, recombinant E. coli-expressed human …; assay: SPR, purified
[8] = target: T2, recombinant E. coli-expressed human IL-4; assay: SPR, purified
[9] = target: recombinant Sf21-expressed human IL-5 (human, UniProt P05113 20-134); assay: SPR
[10] = target: T3, recombinant E. coli-expressed cynomolgus IL-13 (cynomolgus, UniProt Q0PW92 21-132); assay: SPR
T3 construct: also called cyno IL-13

[11] = target: T1, recombinant E. coli-expressed human …; assay: SPR exp 1
[12] = target: T2, recombinant E. coli-expressed human IL-4; assay: SPR exp 1
[13] = target: T1, recombinant E. coli-expressed human …; assay: SPR exp 2
[14] = target: T2, recombinant E. coli-expressed human IL-4; assay: SPR exp 2
[15] = target: T1, recombinant E. coli-expressed human …; assay: cell-based or functional assay
[16] = target: T3, recombinant E. coli-expressed …; assay: cell-based or functional assay
[17] = target: T1, recombinant E. coli-expressed human …; assay: ELISA, IL-13 binding to IL13Ralpha2/Fc
[18] = target: recombinant human TNF-alpha (human, UniProt P01375 77-233); assay: ELISA, supernatant
[19] = target: T2, recombinant E. coli-expressed human IL-4; assay: ELISA, supernatant
[20] = target: T4, RNAse A (UniProt P61823 27-150); assay: ELISA
T4 sequence (looked up): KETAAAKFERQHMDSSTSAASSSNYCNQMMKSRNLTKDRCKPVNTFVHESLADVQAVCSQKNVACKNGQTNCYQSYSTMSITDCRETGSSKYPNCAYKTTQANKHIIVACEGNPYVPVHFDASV

[21] = target: T5, HEL (Hen Egg Lysozyme) (hen, UniProt P00698 19-147); assay: ELISA
T5 construct: also called hen egg white lysozyme
T5 sequence (P00698 19-147): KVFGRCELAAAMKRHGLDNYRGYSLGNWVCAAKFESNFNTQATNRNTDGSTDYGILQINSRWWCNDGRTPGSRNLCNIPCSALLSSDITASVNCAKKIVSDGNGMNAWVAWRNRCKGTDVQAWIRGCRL

- Kd [1]: 0.035 nM
B1: Anti-human IL-18 (humanised) monoclonal antibody (antibody, human IgG1, kappa, V domains shown)
VH: QVQLVQSGAEVKKPGASVKVSCKVSGEISTGYYFHWVRQAPGKGLEWMGRIDPEDDSTKYAERFKDRVTMTEDTSTDTAYMELSSLRSEDTAVYYCTTWRIYRDSSGRPFYVMDAWGQGTLVTVSS
VL: DIQMTQSPSSVSASVGDRVTITCLASEDIYTYLTWYQQKPGKAPKLLIYGANKLQDGVPSRFSGSGSGTDYTLTISSLQPEDFATYYCLQGSKFPLTFGQGTKLEIKR
notes: also called Anti-human IL-18 mAb

- binding result [2]: binds
- binding result [3]: binds
B2: PascoL-ELQLE-474 (bispecific antibody, human IgG1, kappa)
heavy: not shown
light: DIVLTQSPSSLSASVGDRVTITCKASQSVDYDGDSYMNWYQQKPGKAPKLLIYAASNLESGIPSRFSGSGSGTDFTFTISSLQPEDIATYYCQQSNEDPPTFGQGTKVEIKRTVAAPSVFIFPPSDEQLKSGTASVVCLLNNFYPREAKVQWKVDNALQSGNSQESVTEQDSKDSTYSLSSTLTLSKADYEKHKVYACEVTHQGLSSPVTKSFNRGECELQLEESCAEAQDGELDGGSGVQLLESGGGLVQPGGSLRLSCAASGFTFAWYDMGWVRQAPGKGLEWVSSIDWHGEVTYYADSVKGRFTISRDNSKNTLYLQMNSLRAEDTAVYYCATAEDEPGYDYWGQGTLVTVSS

- Kd [4]: 0.56 nM
- koff [5]: 6.69e-07 s⁻¹
- kon [5]: 66200 M⁻¹ s⁻¹
- Kd [6]: 0.011 nM
B3: 586H-TVAAPS-147 (bispecific antibody, human IgG1, kappa)
heavy: not shown
light: DIVMTQSPLSLPVTPGEPASISCRSSQNIVHINGNTYLEWYLQKPGQSPRLLIYKISDRFSGVPDRFSGSGSGTDFTLKISRVEADDVGIYYCFQGSHVPWTFGQGTKLEIKRTVAAPSVFIFPPSDEQLKSGTASVVCLLNNFYPREAKVQWKVDNALQSGNSQESVTEQDSKDSTYSLSSTLTLSKADYEKHKVYACEVTHQGLSSPVTKSFNRGEC

- Kd [4]: 0.56 nM
- koff [5]: 1.15e-07 s⁻¹
- kon [5]: 64400 M⁻¹ s⁻¹
- Kd [7]: 0.41 nM
- Kd [8]: 0.49 nM
- Kd [6]: 0.002 nM
B4: 586H-TVAAPS-154 (bispecific antibody, human IgG1, kappa)
heavy: not shown
light: DIVMTQSPLSLPVTPGEPASISCRSSQNIVHINGNTYLEWYLQKPGQSPRLLIYKISDRFSGVPDRFSGSGSGTDFTLKISRVEADDVGIYYCFQGSHVPWTFGQGTKLEIKRTVAAPSVFIFPPSDEQLKSGTASVVCLLNNFYPREAKVQWKVDNALQSGNSQESVTEQDSKDSTYSLSSTLTLSKADYEKHKVYACEVTHQGLSSPVTKSFNRGEC

- binding result [2]: no binding
- binding result [3]: no binding
- Kd [9]: 0.34 nM
B5: Mepolizumab (Anti-human IL-5 monoclonal antibody) (antibody, human IgG1, kappa, V domains shown)
VH: QVTLRESGPALVKPTQTLTLTCTVSGFSLTSYSVHWVRQPPGKGLEWLGVIWASGGTDYNSALMSRLSISKDTSRNQVVLTMTNMDPVDTATYYCARDPPSSLLRLDYWGRGTLVTVSS
VL: DIVMTQSPDSLAVSLGERATINCKSSQSLLNSGNQKNYLAWYQQKPGQPPKLLIYGASTRESGVPDRFSGSGSGTDFTLTISSLQAEDVAVYYCQNVHSFPFTFGGGTKLEIKR
notes: also called IL-5 mAb; anti-human IL5 mAb

- Kd [10]: 9.8 nM
- koff [10]: 0.00451 s⁻¹
- kon [10]: 460000 M⁻¹ s⁻¹
- Kd [11]: 0.0497 nM
- Kd [12]: 0.003 nM
- Kd [13]: 0.056 nM
- Kd [14]: 0.005 nM
- Mean ND50 (TF-1) [15]: 0.722 nM
- Mean ND50 (TF-1) [16]: 14.5 nM
- IC50 [17]: 6.17 nM
B6: PascoH-TVAAPS-616 (bispecific antibody, human IgG1, kappa)
heavy: not shown
light: DIVLTQSPSSLSASVGDRVTITCKASQSVDYDGDSYMNWYQQKPGKAPKLLIYAASNLESGIPSRFSGSGSGTDFTFTISSLQPEDIATYYCQQSNEDPPTFGQGTKVEIKRTVAAPSVFIFPPSDEQLKSGTASVVCLLNNFYPREAKVQWKVDNALQSGNSQESVTEQDSKDSTYSLSSTLTLSKADYEKHKVYACEVTHQGLSSPVTKSFNRGEC

- binding result [18]: binds
- binding result [19]: binds
B7: BPC1823 (bispecific antibody, human IgG1, kappa)
heavy: not shown
light: DIVLTQSPSSLSASVGDRVTITCKASQSVDYDGDSYMNWYQQKPGKAPKLLIYAASNLESGIPSRFSGSGSGTDFTFTISSLQPEDIATYYCQQSNEDPPTFGQGTKVEIKRTVAAPSVFIFPPSDEQLKSGTASVVCLLNNFYPREAKVQWKVDNALQSGNSQESVTEQDSKDSTYSLSSTLTLSKADYEKHKVYACEVTHQGLSSPVTKSFNRGEC
notes: also called Anti IL-4 Heavy Chain-GS-anti TNF-a adnectin

- binding result [20]: binds
- binding result [3]: binds
B8: BPC1809 (bispecific antibody, human IgG1, kappa)
heavy: not shown
light: DIVLTQSPSSLSASVGDRVTITCKASQSVDYDGDSYMNWYQQKPGKAPKLLIYAASNLESGIPSRFSGSGSGTDFTFTISSLQPEDIATYYCQQSNEDPPTFGQGTKVEIKRTVAAPSVFIFPPSDEQLKSGTASVVCLLNNFYPREAKVQWKVDNALQSGNSQESVTEQDSKDSTYSLSSTLTLSKADYEKHKVYACEVTHQGLSSPVTKSFNRGEC
notes: also called Anti IL-4 heavy Chain-GS-anti RNAse A camelidVHH

- binding result [21]: binds
- binding result [3]: binds
B9: BPC1816 (bispecific antibody, human IgG1, kappa)
heavy: not shown
light: DIVLTQSPSSLSASVGDRVTITCKASQSVDYDGDSYMNWYQQKPGKAPKLLIYAASNLESGIPSRFSGSGSGTDFTFTISSLQPEDIATYYCQQSNEDPPTFGQGTKVEIKRTVAAPSVFIFPPSDEQLKSGTASVVCLLNNFYPREAKVQWKVDNALQSGNSQESVTEQDSKDSTYSLSSTLTLSKADYEKHKVYACEVTHQGLSSPVTKSFNRGEC
notes: also called Anti IL-4 heavy Chain-GS-NARV

- binding result [18]: binds
- binding result [19]: binds
B10: BPC1822 (bispecific antibody, human IgG1, kappa)
heavy: not shown
light: DIVLTQSPSSLSASVGDRVTITCKASQSVDYDGDSYMNWYQQKPGKAPKLLIYAASNLESGIPSRFSGSGSGTDFTFTISSLQPEDIATYYCQQSNEDPPTFGQGTKVEIKRTVAAPSVFIFPPSDEQLKSGTASVVCLLNNFYPREAKVQWKVDNALQSGNSQESVTEQDSKDSTYSLSSTLTLSKADYEKHKVYACEVTHQGLSSPVTKSFNRGEC

- Kd [10]: 5.4 nM
- koff [10]: 0.00184 s⁻¹
- kon [10]: 341000 M⁻¹ s⁻¹
- Kd [11]: 0.114 nM
- Kd [12]: 0.00172 nM
- Kd [13]: 0.15 nM
- Mean ND50 (TF-1) [15]: 0.796 nM
- Mean ND50 (TF-1) [16]: 9.23 nM
- IC50 [17]: 6.41 nM
B11: PascoH-616 (bispecific antibody, human IgG1, kappa)
heavy: not shown
light: DIVLTQSPSSLSASVGDRVTITCKASQSVDYDGDSYMNWYQQKPGKAPKLLIYAASNLESGIPSRFSGSGSGTDFTFTISSLQPEDIATYYCQQSNEDPPTFGQGTKVEIKRTVAAPSVFIFPPSDEQLKSGTASVVCLLNNFYPREAKVQWKVDNALQSGNSQESVTEQDSKDSTYSLSSTLTLSKADYEKHKVYACEVTHQGLSSPVTKSFNRGEC
